Numbered stars: 1 amine (or outer) side, 2 acyl side, 3 side chain; on linkers, the order of the positions; unused ones are H or OH. Square brackets hold non-standard residues; d marks the D form. Side chains are listed from the residue outwards. Ends that are not written are not given here. * marks the point of attachment. C20 diacid = O=C(O)CCCCCCCCCCCCCCCCCCC(=O)*; γGlu = O=C(O)[C@H](CCC(=O)[*:2])N[*:1]; AEEA = NCCOCCOCC(=O)O; Aib = CC(C)(N)C(=O)O
T1: human GIP receptor (human, UniProt P48546 22-466)
T1 sequence (looked up): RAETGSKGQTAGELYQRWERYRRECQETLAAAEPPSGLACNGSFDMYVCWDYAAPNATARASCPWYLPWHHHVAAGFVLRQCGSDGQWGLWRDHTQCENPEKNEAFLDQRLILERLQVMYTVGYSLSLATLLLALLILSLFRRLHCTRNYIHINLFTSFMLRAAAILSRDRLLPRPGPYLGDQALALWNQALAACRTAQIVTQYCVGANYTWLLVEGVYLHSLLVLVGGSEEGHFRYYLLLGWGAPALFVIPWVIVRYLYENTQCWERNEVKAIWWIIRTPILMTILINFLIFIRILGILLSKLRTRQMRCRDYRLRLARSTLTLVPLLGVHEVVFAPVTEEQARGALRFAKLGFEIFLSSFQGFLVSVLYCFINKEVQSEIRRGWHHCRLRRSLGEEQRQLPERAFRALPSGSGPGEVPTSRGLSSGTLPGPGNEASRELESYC


Key:
[1] = target: T1, human GIP receptor; assay: cell-based or functional assay
[2] = target: human GLP-1 receptor (human, UniProt P43220 24-463); assay: cell-based or functional assay

Row | Binder | hGIPR cAMP EC50 ratio [1] | hGIPR cAMP Rel EC50 [1] [nM] | hGLP1R cAMP EC50 ratio [2] | hGLP1R cAMP Rel EC50 [2] [nM]
1 | Y[Aib]EGTFTSDYSILLDKIAQ[Aib]AFIEYLIEGGPSSGAPPPSK([AEEA-AEEA-γGlu-C20 diacid])-NH2 (N-terminus assumed; SMILES CC[C@H](C)[C@H](NC(=O)[C@H](CCCCN)NC(=O)[C@H](CC(=O)O)NC(=O)[C@H](CC(C)C)NC(=O)[C@H](CC(C)C)NC(=O)[C@@H](NC(=O)[C@H](CO)NC(=O)[C@H](Cc1ccc(O)cc1)NC(=O)[C@H](CC(=O)O)NC(=O)[C@H](CO)NC(=O)[C@@H](NC(=O)[C@H](Cc1ccccc1)NC(=O)[C@@H](NC(=O)CNC(=O)[C@H](CCC(=O)O)NC(=O)C(C)(C)NC(=O)[C@@H](N)Cc1ccc(O)cc1)[C@@H](C)O)[C@@H](C)O)[C@@H](C)CC)C(=O)N[C@@H](C)C(=O)N[C@@H](CCC(N)=O)C(=O)NC(C)(C)C(=O)N[C@@H](C)C(=O)N[C@@H](Cc1ccccc1)C(=O)N[C@H](C(=O)N[C@@H](CCC(=O)O)C(=O)N[C@@H](Cc1ccc(O)cc1)C(=O)N[C@@H](CC(C)C)C(=O)N[C@H](C(=O)N[C@@H](CCC(=O)O)C(=O)NCC(=O)NCC(=O)N1CCC[C@H]1C(=O)N[C@@H](CO)C(=O)N[C@@H](CO)C(=O)NCC(=O)N[C@@H](C)C(=O)N1CCC[C@H]1C(=O)N1CCC[C@H]1C(=O)N1CCC[C@H]1C(=O)N[C@@H](CO)C(=O)N[C@@H](CCCCNC(=O)COCCOCCNC(=O)COCCOCCNC(=O)CC[C@H](NC(=O)CCCCCCCCCCCCCCCCCCC(=O)O)C(=O)O)C(N)=O)[C@@H](C)CC)[C@@H](C)CC) [Example 49] | 1.69 | 0.0868 | 0.112 | 0.597
2 | Y[Aib]EGTFTSDYSILLDKK([AEEA-AEEA-γGlu-C20 diacid])AQ[Aib]AFIEYLIEGGPSSG-NH2 (N-terminus assumed; SMILES CC[C@H](C)[C@H](NC(=O)[C@H](CC(C)C)NC(=O)[C@H](Cc1ccc(O)cc1)NC(=O)[C@H](CCC(=O)O)NC(=O)[C@@H](NC(=O)[C@H](Cc1ccccc1)NC(=O)[C@H](C)NC(=O)C(C)(C)NC(=O)[C@H](CCC(N)=O)NC(=O)[C@H](C)NC(=O)[C@H](CCCCNC(=O)COCCOCCNC(=O)COCCOCCNC(=O)CC[C@H](NC(=O)CCCCCCCCCCCCCCCCCCC(=O)O)C(=O)O)NC(=O)[C@H](CCCCN)NC(=O)[C@H](CC(=O)O)NC(=O)[C@H](CC(C)C)NC(=O)[C@H](CC(C)C)NC(=O)[C@@H](NC(=O)[C@H](CO)NC(=O)[C@H](Cc1ccc(O)cc1)NC(=O)[C@H](CC(=O)O)NC(=O)[C@H](CO)NC(=O)[C@@H](NC(=O)[C@H](Cc1ccccc1)NC(=O)[C@@H](NC(=O)CNC(=O)[C@H](CCC(=O)O)NC(=O)C(C)(C)NC(=O)[C@@H](N)Cc1ccc(O)cc1)[C@@H](C)O)[C@@H](C)O)[C@@H](C)CC)[C@@H](C)CC)C(=O)N[C@@H](CCC(=O)O)C(=O)NCC(=O)NCC(=O)N1CCC[C@H]1C(=O)N[C@@H](CO)C(=O)N[C@@H](CO)C(=O)NCC(N)=O) [Example 50] | 1.96 | 0.0794 | 0.675 | 0.0961
3 | Y[Aib]EGTFTSDYSSLLDKK([AEEA-AEEA-γGlu-C20 diacid])AQ[Aib]AFIEYLIEGGPSSGAPPPS-NH2 (N-terminus assumed; SMILES CC[C@H](C)[C@H](NC(=O)[C@H](CC(C)C)NC(=O)[C@H](Cc1ccc(O)cc1)NC(=O)[C@H](CCC(=O)O)NC(=O)[C@@H](NC(=O)[C@H](Cc1ccccc1)NC(=O)[C@H](C)NC(=O)C(C)(C)NC(=O)[C@H](CCC(N)=O)NC(=O)[C@H](C)NC(=O)[C@H](CCCCNC(=O)COCCOCCNC(=O)COCCOCCNC(=O)CC[C@H](NC(=O)CCCCCCCCCCCCCCCCCCC(=O)O)C(=O)O)NC(=O)[C@H](CCCCN)NC(=O)[C@H](CC(=O)O)NC(=O)[C@H](CC(C)C)NC(=O)[C@H](CC(C)C)NC(=O)[C@H](CO)NC(=O)[C@H](CO)NC(=O)[C@H](Cc1ccc(O)cc1)NC(=O)[C@H](CC(=O)O)NC(=O)[C@H](CO)NC(=O)[C@@H](NC(=O)[C@H](Cc1ccccc1)NC(=O)[C@@H](NC(=O)CNC(=O)[C@H](CCC(=O)O)NC(=O)C(C)(C)NC(=O)[C@@H](N)Cc1ccc(O)cc1)[C@@H](C)O)[C@@H](C)O)[C@@H](C)CC)C(=O)N[C@@H](CCC(=O)O)C(=O)NCC(=O)NCC(=O)N1CCC[C@H]1C(=O)N[C@@H](CO)C(=O)N[C@@H](CO)C(=O)NCC(=O)N[C@@H](C)C(=O)N1CCC[C@H]1C(=O)N1CCC[C@H]1C(=O)N1CCC[C@H]1C(=O)N[C@@H](CO)C(N)=O) [Example 58] | 0.522 | 0.266 | 0.378 | 0.18
4 | Y[Aib]EGTFTSDYSILLDKK([AEEA-AEEA-γGlu-C20 diacid])AQ[Aib]AFIEYLIEGG-NH2 (N-terminus assumed; SMILES CC[C@H](C)[C@H](NC(=O)[C@H](CC(C)C)NC(=O)[C@H](Cc1ccc(O)cc1)NC(=O)[C@H](CCC(=O)O)NC(=O)[C@@H](NC(=O)[C@H](Cc1ccccc1)NC(=O)[C@H](C)NC(=O)C(C)(C)NC(=O)[C@H](CCC(N)=O)NC(=O)[C@H](C)NC(=O)[C@H](CCCCNC(=O)COCCOCCNC(=O)COCCOCCNC(=O)CC[C@H](NC(=O)CCCCCCCCCCCCCCCCCCC(=O)O)C(=O)O)NC(=O)[C@H](CCCCN)NC(=O)[C@H](CC(=O)O)NC(=O)[C@H](CC(C)C)NC(=O)[C@H](CC(C)C)NC(=O)[C@@H](NC(=O)[C@H](CO)NC(=O)[C@H](Cc1ccc(O)cc1)NC(=O)[C@H](CC(=O)O)NC(=O)[C@H](CO)NC(=O)[C@@H](NC(=O)[C@H](Cc1ccccc1)NC(=O)[C@@H](NC(=O)CNC(=O)[C@H](CCC(=O)O)NC(=O)C(C)(C)NC(=O)[C@@H](N)Cc1ccc(O)cc1)[C@@H](C)O)[C@@H](C)O)[C@@H](C)CC)[C@@H](C)CC)C(=O)N[C@@H](CCC(=O)O)C(=O)NCC(=O)NCC(N)=O) [Example 51] | 1.69 | 0.096 | 0.426 | 0.153
5 | YXEGTXTSDYSILLDKKAQXAFIEYLIEGGPSSGAPPPS (Aib2; αMeF6; K17((2-[2-(2-Amino-ethoxy)-ethoxy]-acetyl)2-(γ-Glu)-CO-(CH2)18-CO2H); Aib20; C-terminal NH2) [Example 57] | 1.74 | 0.0849 | 0.996 | 0.0668
6 | YXEGTFTSDYXILLDKKAQXAFIEYLIEGGPSSGAPPPS (Aib2; αMeS11; K17((2-[2-(2-Amino-ethoxy)-ethoxy]-acetyl)2-(γ-Glu)-CO-(CH2)18-CO2H); Aib20; C-terminal NH2) [Example 68] | 1.67 | 0.0881 | 0.354 | 0.153
7 | YXEGTFTSDYSIXLDEKAQXAFIEYLLEGGPSSGAPPPS (not fully specified; Aib2; αMeF13 as printed (likely αMeL13); K17((2-[2-(2-Amino-ethoxy)-ethoxy]-acetyl)2-(γ-Glu)-CO-(CH2)18-CO2H); Aib20; C-terminal NH2) [Example 66] | 1.89 | 0.0743 | 0.255 | 0.285
8 | YXEGTXTSDYSIXLDKKAQXAFIEYLIEGGPSSGAPPPS (not fully specified; Aib2; αMeF6; αMeF13 as printed (likely αMeL13); K17((2-[2-(2-Amino-ethoxy)-ethoxy]-acetyl)2-(γ-Glu)-CO-(CH2)18-CO2H); Aib20; C-terminal NH2) [Example 69] | 2.73 | 0.0712 | 0.85 | 0.0844
9 | YXEGTFTSDYSILLDKKAQXAXIEYLIEGGPSSGAPPPS (Aib2; K17((2-[2-(2-Amino-ethoxy)-ethoxy]-acetyl)2-(γ-Glu)-CO-(CH2)18-CO2H); Aib20; αMeF22; C-terminal NH2) [Example 67] | 1.61 | 0.0913 | 0.123 | 0.447
